Test results as given in article PMC3291610, “Identification of the Neogenin-Binding Site on the Repulsive Guidance Molecule A” (PLoS ONE, 2012).

Target: T1, Recombinant mouse neogenin-Fc chimera protein (mouse, UniProt P97798 37-1136)
T1 construct: neogenin, mouse, extracellular domain (ECD); No catalogue number printed; detected by an anti-IgG Fc antibody; also called neogenin-ECD-Fc; Fc-fused neogenin ECD; source: bought: R&D Systems
T1 sequence (looked up): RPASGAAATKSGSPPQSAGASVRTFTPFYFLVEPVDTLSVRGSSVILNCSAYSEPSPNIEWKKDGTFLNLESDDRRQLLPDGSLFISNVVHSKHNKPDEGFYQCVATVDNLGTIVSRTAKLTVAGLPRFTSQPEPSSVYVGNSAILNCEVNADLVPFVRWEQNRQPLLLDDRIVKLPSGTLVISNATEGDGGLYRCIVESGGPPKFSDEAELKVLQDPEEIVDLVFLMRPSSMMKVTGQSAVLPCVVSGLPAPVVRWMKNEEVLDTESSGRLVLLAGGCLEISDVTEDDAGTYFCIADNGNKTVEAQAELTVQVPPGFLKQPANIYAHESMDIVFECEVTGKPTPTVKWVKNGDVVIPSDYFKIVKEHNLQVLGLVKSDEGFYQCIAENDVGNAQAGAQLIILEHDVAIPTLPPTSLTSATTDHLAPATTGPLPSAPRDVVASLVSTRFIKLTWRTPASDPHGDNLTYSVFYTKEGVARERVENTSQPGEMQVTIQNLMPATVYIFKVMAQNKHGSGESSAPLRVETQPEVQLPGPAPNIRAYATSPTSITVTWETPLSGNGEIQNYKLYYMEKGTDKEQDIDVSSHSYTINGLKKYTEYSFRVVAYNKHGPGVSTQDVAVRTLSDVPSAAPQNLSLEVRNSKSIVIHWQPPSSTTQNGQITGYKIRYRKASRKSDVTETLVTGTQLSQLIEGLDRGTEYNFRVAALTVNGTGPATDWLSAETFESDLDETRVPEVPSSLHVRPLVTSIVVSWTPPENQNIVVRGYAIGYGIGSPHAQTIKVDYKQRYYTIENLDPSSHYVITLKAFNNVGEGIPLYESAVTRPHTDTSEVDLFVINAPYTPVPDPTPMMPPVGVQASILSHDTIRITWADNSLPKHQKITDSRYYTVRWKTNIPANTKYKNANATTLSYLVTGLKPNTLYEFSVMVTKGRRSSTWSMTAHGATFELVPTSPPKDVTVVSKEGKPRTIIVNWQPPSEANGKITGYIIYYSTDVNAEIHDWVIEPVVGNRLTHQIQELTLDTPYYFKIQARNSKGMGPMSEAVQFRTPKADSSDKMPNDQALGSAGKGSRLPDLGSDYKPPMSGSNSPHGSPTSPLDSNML
Test: ELISA; synthetic TAT-RGMa peptides coated on the plate (5 µg/mL, 16 h, 4°C), blocked with 5% BSA/PBS; neogenin-Fc added at 1 µg/mL for 1 h; detected with anti-IgG Fc antibody and HRP secondary, A450
Settings: both partners purified

B1: RGMa peptide 4 (aa 284-293) fused with an N-terminal TAT protein (peptide)
peptide: YGRKKRRQRRRRQVGRYLTFA
notes: The TAT-fused form was used in the ELISA; peptide 4 without TAT was used in the growth cone collapse assay; also called Pep4; source: synthetic peptide (SIGMA Life Science, Japan)
Does B1 bind?
Result: binds
